{"source": "patent US20070053894A1", "key": {"[1]": {"molecular_target": "endogenous membrane-bound p97 of HMEC-1 and SK-MEL28 cells (human) (UniProt P08582)", "sequence (P08582 20-709)": "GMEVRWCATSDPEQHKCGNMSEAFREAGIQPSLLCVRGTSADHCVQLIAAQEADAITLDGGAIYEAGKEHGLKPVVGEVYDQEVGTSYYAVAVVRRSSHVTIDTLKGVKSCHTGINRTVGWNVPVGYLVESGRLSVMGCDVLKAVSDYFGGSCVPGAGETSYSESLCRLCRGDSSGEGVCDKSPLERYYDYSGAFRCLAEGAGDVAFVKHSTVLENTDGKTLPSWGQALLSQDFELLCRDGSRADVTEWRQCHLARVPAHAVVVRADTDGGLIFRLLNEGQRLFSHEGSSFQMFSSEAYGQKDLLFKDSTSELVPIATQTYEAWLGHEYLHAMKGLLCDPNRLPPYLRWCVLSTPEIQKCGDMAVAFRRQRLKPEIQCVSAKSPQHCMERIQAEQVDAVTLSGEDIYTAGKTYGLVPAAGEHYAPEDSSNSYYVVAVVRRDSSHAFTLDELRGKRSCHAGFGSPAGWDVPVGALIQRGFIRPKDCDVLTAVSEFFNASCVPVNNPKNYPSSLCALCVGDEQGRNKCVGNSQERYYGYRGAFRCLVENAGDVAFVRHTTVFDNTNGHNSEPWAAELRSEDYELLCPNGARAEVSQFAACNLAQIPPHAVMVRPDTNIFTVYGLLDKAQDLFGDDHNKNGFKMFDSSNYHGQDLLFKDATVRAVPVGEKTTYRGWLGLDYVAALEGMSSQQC", "assay": "cell-based or functional assay"}, "[2]": {"molecular_target": "Soluble human recombinant p97 (melanotransferrin) (human) (UniProt P08582)", "sequence (P08582 20-711 T431K)": "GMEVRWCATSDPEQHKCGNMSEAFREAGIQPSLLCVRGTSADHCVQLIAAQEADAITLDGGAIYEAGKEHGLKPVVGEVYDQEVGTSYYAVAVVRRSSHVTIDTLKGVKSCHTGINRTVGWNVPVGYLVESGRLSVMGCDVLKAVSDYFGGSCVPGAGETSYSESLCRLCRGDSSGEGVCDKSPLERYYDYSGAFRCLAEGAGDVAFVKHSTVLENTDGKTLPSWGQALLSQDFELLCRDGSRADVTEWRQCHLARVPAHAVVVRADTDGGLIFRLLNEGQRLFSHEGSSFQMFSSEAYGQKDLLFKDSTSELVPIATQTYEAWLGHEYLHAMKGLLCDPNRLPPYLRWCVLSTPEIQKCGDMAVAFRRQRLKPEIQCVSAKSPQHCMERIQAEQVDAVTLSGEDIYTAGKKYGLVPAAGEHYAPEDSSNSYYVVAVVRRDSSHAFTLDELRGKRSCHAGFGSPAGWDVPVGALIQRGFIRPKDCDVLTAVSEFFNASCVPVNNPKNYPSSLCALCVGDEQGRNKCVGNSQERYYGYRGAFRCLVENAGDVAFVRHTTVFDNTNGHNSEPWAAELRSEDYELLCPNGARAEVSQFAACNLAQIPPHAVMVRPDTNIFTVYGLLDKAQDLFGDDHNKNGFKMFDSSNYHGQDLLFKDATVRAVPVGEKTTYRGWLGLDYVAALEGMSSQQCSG", "assay": "cell-based or functional assay"}, "[3]": {"molecular_target": "Soluble human recombinant p97 (melanotransferrin) (human) (UniProt P08582)", "assay": "SPR (BIAcore), p97 immobilised on CM5 chip, mAb injected"}, "[4]": {"molecular_target": "Soluble human recombinant p97 (melanotransferrin) (human) (UniProt P08582)", "assay": "SPR (BIAcore), p97 immobilised on CM5 chip, mAb injected at 0.05 µg/µl"}}}
{"substance": "monoclonal antibody L235 directed against p97", "values": [{"measurement": "inhibition of HMEC-1 cell migration by 50 nM mAb L235 (Boyden chamber)", "setting": "[1]", "result": 54, "unit": "%"}, {"measurement": "inhibition of SK-MEL28 cell migration by 50 nM mAb L235 (Boyden chamber)", "setting": "[1]", "result": 48, "unit": "%"}, {"measurement": "inhibition of plasminolytic activity of HMEC-1 cells by 250 nM mAb L235", "setting": "[1]", "result": "> 50", "unit": "%"}, {"measurement": "inhibition of the effect of soluble p97 on plasminogen activation by tPA", "setting": "[2]", "result": 80, "unit": "%"}, {"measurement": "inhibition of the pro-uPA activation induced by p97 (plasminolytic activity)", "setting": "[2]", "result": 50, "unit": "%"}, {"measurement": "Ka", "setting": "[3]", "result": "9e+08", "unit": "M⁻¹"}, {"measurement": "Kd", "setting": "[3]", "result": 1.2, "unit": "nM"}, {"measurement": "koff", "setting": "[3]", "result": "5.3e-05", "unit": "s⁻¹"}, {"measurement": "kon", "setting": "[3]", "result": 44000, "unit": "M⁻¹ s⁻¹"}, {"measurement": "ΔRU", "setting": "[4]", "result": 1060, "unit": "RU"}]}
